We go through five substances from patent US10139419B2, “Methods for detecting Aβ oligomers” (SYSTEM OF SYSTEMS ANALYTICS, INC., priority 2014, dated 2018).

Bridge positions count the residues as written; N and C are the ends. Square brackets hold non-standard residues; d marks the D form. Ends that are not written are not given here. * marks the point of attachment. FITC = O=C1OC2(c3ccc(O)cc3Oc3cc(O)ccc32)c2ccc(NC(=S)*)cc21; Ahx = NCCCCCC(=O)O

In assay [1] the target is T1, Aβ oligomer (Homo sapiens, UniProt P05067). Kind of assay: PLISA using PEP-11 peptide probes on Aβ monomer, oligomer and fiber. Type of assay: binding. From the text:
PEP-11ds is also represented by SEQ ID NO:64, but has a disulfide bridge at the two cysteines.

Assay [2] has as its target T1, Aβ oligomer. Kind of assay: Peptide Linked Immunosorbent Assay (PLISA) compared with ELISA. It counts as binding. To be noted: ELISA with Aβ antibody 6E10 labeled with horse radish peroxidase. From the text:
FIG. 7 depicts different formats for a PLISA as described herein. PLISA (A) depicts a sandwich format in which a target oligomer, such as an Aβ oligomer (SDS Oligo), binds to both surface-bound peptide probe (peptide) and peptide probe tagged with a label (Tag). The complex is detected using a labeled antibody (Anti-TagAb-label). PLISA (B) depicts a sandwich format in which the peptide probe tagged with a label is replaced by a labeled antibody (Ab-label) specific to the Aβ oligomer. PLISA (C) depicts a sandwich format in which the surface-bound peptide probe is replaced with an antibody specific to the Aβ oligomer (Ab-6E10). PLISA (D) depicts a competitive format in which Aβ oligomer in a biological sample competes with surface-bound Aβ oligomer for a labeled peptide probe. Each of PLISA (A)-(D) can use a solid-phase format (shown here as a bead, in which the bead is passed through an apparatus for detecting the labels).
Different concentrations of Aβ oligomer in solution are subjected to both PLISA and ELISA to determine the sensitivity of each assay, as measured by dose response curves. For the PLISA assay, the peptide probe used is AD317 (SEQ ID NO:41). For the ELSIA, the antibody used is Aβ antibody 6E10 labeled with horse radish peroxidase. […]

The target of assay [3] is T2, Aβ42 oligomer (Homo sapiens, UniProt P05067). As to the kind of experiment: Fluorescent anisotropy versus Aβ42 oligomer concentration. It counts as binding.
T2 sequence (P05067 672-713 limits assumed): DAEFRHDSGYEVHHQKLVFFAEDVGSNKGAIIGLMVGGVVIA
Assay [4] deals with T3, synthetic Aβ oligomer (Homo sapiens, UniProt P05067).
T3 construct: The monomers can comprise one or more of Aβ3-42, Aβ37, Aβ38, Aβ39, Aβ40 and Aβ42; host or cells: synthetic peptide oligomer
T3 sequence (P05067 672-713 limits assumed): as above
As to the kind of experiment: Fluorescence detection assay of synthetic Aβ oligomer spiked into human CSF. It counts as binding. To be noted: 10 mM HEPES pH 7.0; 0.005% NP-40; 10% normal human cerebrospinal fluid; 70 nM pyrenated peptide; 37° C. On the procedure: Samples of CSF from a normal human subject are spiked with different concentrations of synthetic Aβ oligomer, and subjected to fluorescence detection assay using peptide probe AD315 (SEQ ID NO:65). The detection is performed in an assay with the following conditions: 10 mM HEPES buffer at pH 7.0; 0.005% NP-40; 10% normal human cerebrospinal fluid; 70 nM pyrenated peptide; and 37° C. incubation.

The target of assay [5] is T2, Aβ42 oligomer. Kind of assay: Streptavidin bead binding assay with gel electrophoresis detection. To be noted: column 4. On the procedure: An assay is performed to analyze peptide probe binding to Aβ42 oligomer. The peptide probe is the same as the probe in EXAMPLE 8. Five samples are analyzed: (1) Aβ42 biotinylated oligomer as a positive control; (2) Aβ42 biotinylated oligomer bound to a bead via streptavidin; (3) peptide positive control; (4) peptide probe bound to Aβ42 biotinylated oligomer bound to a bead via streptavidin; and (5) peptide probe bound to a bead via streptavidin. Detection was by gel electrophoresis.

T1 sequence (P05067 672-713 limits assumed): as above

For “Pep11-a: consists of SEQ ID NO:64, at a purity of 86% (standard) ({FITC}-[Ahx]CLVFFAEDVGSNKGAIIGLMC[dR][dR]; not fully specified; cysteine pairing not given here)”, the “preferential detection/binding of Aβ oligomer as compared to Aβ monomer or fiber” value in assay [1] was “preferentially detect Aβ oligomer”.

Regarding “Pep11-b: consists of SEQ ID NO:64, at a purity of 95% (high) ({FITC}-[Ahx]CLVFFAEDVGSNKGAIIGLMC[dR][dR]; not fully specified; cysteine pairing not given here)”, in assay [1], the “preferential detection/binding of Aβ oligomer as compared to Aβ monomer or fiber” value was “preferentially detect Aβ oligomer”.

As for “AD317: P22, biotin labeled with thrombin site linker, at C-terminus (KLVFFAEDVGSNKHAIIELMKGLVPRGSGK; not fully specified (residue 30, C-terminus); also: biotin label at C-terminus via thrombin site linker, attachment place not given here)”, in assay [2], the “sensitivity for detecting Aβ oligomer, PLISA vs ELISA (dose response curves)” value is given as “more sensitive assay for detecting Aβ oligomer than the ELISA”.

With “Pep11-ds: represented by SEQ ID NO:64, but has a disulfide bridge at the two cysteines ({FITC}-[Ahx]CLVFFAEDVGSNKGAIIGLMC[dR][dR]; disulfide 2-22; not fully specified)”, the “preferential detection/binding of Aβ oligomer as compared to Aβ monomer or fiber” value in assay [1] is recorded as “preferentially detect Aβ oligomer”.

Consider “AD315: Salt bridge at G29H and G33E; PBA and NH2 additions; pyrenated peptide (KLVFFAEDVGSNKHAIIELMK-NH2; not fully specified (N-terminus); also: PBA addition, pyrene label)”, for which the “fluorescent anisotropy (milli-r) as a function of Aβ42 oligomer concentration (nN)” value in assay [3] is “decreases as oligomer concentration increases”. For the same substance, the “fluorescence response to synthetic Aβ oligomer concentration” value in assay [4] was “linear, dose-dependent curve”. Further, the “binding of peptide probe to bead-bound Aβ42 biotinylated oligomer” value in assay [5] is given as “can be used to detect Aβ42 oligomer”.
